Reference: patent publication US6391305
Where “and” joins values, the source holds several entries; their conditions need not be identical. Equal entries are not always repeated.

Columns and labels:
[1] = system: PEG(2)-SHomoRChgQ-SL-DOX (3′)
[2] = system: 2-hydroxyacetyl-HomoRSSYQ-SL-DOX (3′)
[3] = system: PEG(2)-3PAL-SSChgQ-SL-acid
[4] = system: 2-hydroxyacetyl-SSSChgQ-SL-DOX (3′)
[5] = system: 2,3-dihydroxypropionyl-HomoSSSChgQ-SL-DOX (3′)
[6] = system: (d)2,3-dihydroxypropionylSSChgQ-SL-DOX (3′)
[7] = system: PEG(2)-SSSChgQ-SL-DOX (3′)
[8] = system: (d)2,3-dihydroxypropionyl-SHomoRChgQ-SL-DOX (3′)
[9] = system: (l)2,3-dihydroxypropionyl-SSChgQ-SL-acid
[10] = system: 2,3-dihydroxypropionyl-SSSChgQ-SL-acid
[11] = system: (d)2,3-dihydroxypropionyl-3PAL-SSChgQSL-acid
[12] = system: 2-hydroxyacetyl-SHomoRChgQ-SL-DOX (3′)
[13] = system: (l)2,3-dihydroxypropionyl-3PAL-SSChgQ-SL-acid
[14] = system: PEG(6)-ASChgQ-SL-DOX (3′)
[15] = system: 2-hydroxyacetyl-hRSSYQ-SL-acid
[16] = system: 2-hydroxyacetyl-HomoRSSYQ-SNle-DOX (3′)
[17] = system: PEG(2)-ASChgQ-SL-DOX (3′)
[18] = system: 2-hydroxyacetylhRYQ-SL-acid
[19] = system: PEG(16)-SHomoRYQ-SL-DOX (3′)
[20] = system: PEG(4)-β-PAL-SSChgQ-SL-acid
[21] = system: (d)2,3-dihydroxypropionyl-3PALSSChgQ-SL-DOX (3′).AcOH
[22] = system: 2-hydroxyacetyl-hRSSYQ-SNle-acid
[23] = system: 2,3-dihydroxypropionyl-ShRYQ-SL-acid
[24] = system: 2,3-dihydroxypropionyl-ShRChgQ-SL-acid
[25] = system: 2(S)-2,3-dihydroxy-propionyl ShRChgQSL-acid
[26] = system: (d)2,3-dihydroxypropionylSSSChgQ-SL-DOX (3′)
[27] = system: (l)2,3-dihydroxypropionyl-SSChgQ-SL-DOX (3′)
[28] = system: (2R,3S) 2,3,4-trihydroxybutanoyl-ShRChgQ-SL-acid
[29] = system: 2,3-dihydroxypropionyl-GSSChgQ-SL-acid
[30] = system: 2-hydroxyacetyl-hRASChgQ-SL-acid
[31] = system: 2-hydroxyacetyl-HomoRASChgQ-SL-DOX (3′)
[32] = system: PEG(2)-SHomoRYQ-SL-DOX (3′)
[33] = system: (l)2,3-dihydroxypropionyl-SHomoRChgQ-SL-DOX (3′)
[34] = system: PEG(2)-SHomoRYQ-SL-DOX(3′)
[35] = system: (l)2,3-dihydroxypropionylSSSChgQ-S(dL)-DOX (3′)
[36] = system: (l)2,3-dihydroxypropionyl-HomoRSSChgQ-SL-DOX (3′)
[37] = system: (2R,3S) 2,3,4-trihydroxybutanoyl-SHomoRChgQ-SL-DOX (3′)
[38] = system: 2-hydroxyacetyl-HomoRSSChgQ-SL-DOX (3′)
[39] = system: 2-hydroxyacetyl-SSChgQ-SL-DOX (3′)
[40] = system: 2,3-dihydroxypropionyl-hSSSChgQ-SL-acid
[41] = system: (l)2,3-dihydroxypropionylSSSChgQ-SL-DOX (3′)
[42] = system: 2-hydroxyacetyl-SSChgQ-SL-acid
[43] = system: PEG(2)-HomoRSSChgQ-SL-DOX (3′)
[44] = system: (l)2,3-dihydroxypropionyl-SSSChgQ-SL-acid
[45] = system: 2(S)2,3-dihydroxypropionyl-hRSSChgQ-SL-acid
[46] = system: (d)2,3-dihydroxypropionyl-HomoRSSChgQSL-DOX (3′)

free prostate specific antigen (PSA)
Time to 50% Substrate Cleavage by York PSA [1]: 25 min
Time to 50% Substrate Cleavage by York PSA (Min) [2]: 16 (PS)
Time to 50% Substrate Cleavage by York PSA [3]: 80 min
Time to 50% Substrate Cleavage by York PSA (PEG(2)SSSChgQ-SL-acid): 150 min
Time to 50% Substrate Cleavage by York PSA [4]: 25 min
Time to 50% Substrate Cleavage by York PSA [5]: 35 min
Time to 50% Substrate Cleavage by York PSA [6]: 120 min
Time to 50% Substrate Cleavage by York PSA [7]: 60 min
Time to 50% Substrate Cleavage by York PSA [8]: 65 min
Time to 50% Substrate Cleavage by York PSA [9]: 180 min
Time to 50% Substrate Cleavage by York PSA (PEG(18)ShRYQ-SL-acid): 40 min
Time to 50% Substrate Cleavage by York PSA [10]: 120 min
Time to 50% Substrate Cleavage by York PSA [11]: 80 min
Time to 50% Substrate Cleavage by York PSA (PEG(1)-ShRChgQ-SL-acid): 120 min
Time to 50% Substrate Cleavage by York PSA (PEG(2)-hRSSChgQ-SL-acid): 40 min
Time to 50% Substrate Cleavage by York PSA [12]: 15 min
Time to 50% Substrate Cleavage by York PSA [13]: 70 min
Time to 50% Substrate Cleavage by York PSA [14]: 160 min
Time to 50% Substrate Cleavage by York PSA (PEG(15)-ShRYQ-SL-acid): 40 min
Time to 50% Substrate Cleavage by York PSA (Min) [15]: 35 (PP)
Time to 50% Substrate Cleavage by York PSA [16]: 60 min
Time to 50% Substrate Cleavage by York PSA (PEG(2)-S-hRChgQ-SL-acid): 30 min
Time to 50% Substrate Cleavage by York PSA [17]: 45 min
Time to 50% Substrate Cleavage by York PSA [18]: 105 min
Time to 50% Substrate Cleavage by York PSA [19]: 65 min
Time to 50% Substrate Cleavage by York PSA [20]: 60 min
Time to 50% Substrate Cleavage by York PSA (PEG(1)-ShRYQ-SL-acid): 90 min
Time to 50% Substrate Cleavage by York PSA (Min) [21]: 12 (PS)
Time to 50% Substrate Cleavage by York PSA [22]: 45 min
Time to 50% Substrate Cleavage by York PSA [23]: 35 min and 50 min
Time to 50% Substrate Cleavage by York PSA [24]: 75 min
Time to 50% Substrate Cleavage by York PSA (PEG(17)-ShRYQ-SL-acid): 55 min
Time to 50% Substrate Cleavage by York PSA ((OH-Ac)SSSChgQ-SL-acid): 120 min
Time to 50% Substrate Cleavage by York PSA [25]: 35 min
Time to 50% Substrate Cleavage by York PSA [26]: 55 min
Time to 50% Substrate Cleavage by York PSA (PEG(16)-ShRYQ-SL-acid): 40 min
Time to 50% Substrate Cleavage by York PSA (PEG(2)-ShRYQ-SL-acid): 35 min
Time to 50% Substrate Cleavage by York PSA (Min) (Ac-hR(CHA)Q-SNle-acid): 200 (PS)
Time to 50% Substrate Cleavage by York PSA (Ac-ANKASYQ-SL-acid): 135 min and 220 min
Time to 50% Substrate Cleavage by York PSA (Ac-hRASChgQ-SL-acid): 50 min
Time to 50% Substrate Cleavage by York PSA [27]: 25 min
Time to 50% Substrate Cleavage by York PSA [28]: 90 min
Time to 50% Substrate Cleavage by York PSA (PEG(19)ShRYQ-SL-acid): 60 min
Time to 50% Substrate Cleavage by York PSA [29]: 160 min
Time to 50% Substrate Cleavage by York PSA [30]: 70 min
Time to 50% Substrate Cleavage by York PSA [31]: 10 min
Time to 50% Substrate Cleavage by York PSA [32]: 60 min
Time to 50% Substrate Cleavage by York PSA [33]: 15 min
Time to 50% Substrate Cleavage by York PSA [34]: 35 min
Time to 50% Substrate Cleavage by York PSA [35]: 180 min
Time to 50% Substrate Cleavage by York PSA [36]: 12 min
Time to 50% Substrate Cleavage by York PSA [37]: 45 min
Time to 50% Substrate Cleavage by York PSA [38]: 12 min
Time to 50% Substrate Cleavage by York PSA [39]: 45 min
Time to 50% Substrate Cleavage by York PSA [40]: 160 min
Time to 50% Substrate Cleavage by York PSA (AchRSSChgQ-SL-acid): 120 min and 45 min
Time to 50% Substrate Cleavage by York PSA [41]: 25 min
Time to 50% Substrate Cleavage by York PSA [42]: 180 min
Time to 50% Substrate Cleavage by York PSA [43]: 11 min
Time to 50% Substrate Cleavage by York PSA (PEG(2)SSChgQ-SL-DOX (3′)): 90 min
Time to 50% Substrate Cleavage by York PSA (PEG(1)-hRSSChgQ-SL-acid): 30 min
Time to 50% Substrate Cleavage by York PSA (Min) (Ac-hRSSYQ-SNle-acid): 25 (PS)
Time to 50% Substrate Cleavage by York PSA [44]: 80 min and 110 min
Time to 50% Substrate Cleavage by York PSA (Min) (Ac-ShRYQ-SNle-acid): 25 (PS)
Time to 50% Substrate Cleavage by York PSA [45]: 25 min
Time to 50% Substrate Cleavage by York PSA [46]: 12 min
Time to 50% Substrate Cleavage by York PSA (PEG(14)ShRYQ-SL-acid): 40 min
